# According to the supplement of paper PMC9112550, “Optimization of the antimicrobial peptide Bac7 by deep mutational scanning” (BMC Biology, 2022):
# System: Escherichia coli TOP10
# Test: shrunken log2 fold change of peptide-encoding DNA abundance (4.5 h post-induction vs induction); higher = less antimicrobial activity (less host growth inhibition)
# Conditions: time post-induction: 4.5 h; library: site-saturation at positions 5, 18, 19, 20
# 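Further: peptides expressed intracellularly from a pBAD plasmid library in pooled LB shake-flask culture, induced with 0.3% L-arabinose, DNA abundance read by NGS, three biological replicates, DESeq2 with apeglm shrinkage.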
row,Sequence,shrunken log2 fold change
1,RRIRERPPRLPRPRPRPWSDPRP,-0.0787
2,RRIRSRPPRLPRPRPRPWYDPRP,-0.511
3,RRIRVRPPRLPRPRPRPEYTPRP,-0.0361
4,RRIRARPPRLPRPRPRPRAHPRP,0.256
5,RRIRARPPRLPRPRPRPSRSPRP,0.349
6,RRIRHRPPRLPRPRPRPNTHPRP,-0.856
7,RRIRNRPPRLPRPRPRPWILPRP,-0.146
8,RRIRARPPRLPRPRPRPKNEPRP,0.215
9,RRIRFRPPRLPRPRPRPMEYPRP,0.0429
10,RRIRYRPPRLPRPRPRPYLKPRP,-0.478
11,RRIRLRPPRLPRPRPRPCPFPRP,-0.353
12,RRIRMRPPRLPRPRPRPHGLPRP,0.0212
13,RRIRCRPPRLPRPRPRPSNDPRP,-0.451
14,RRIRNRPPRLPRPRPRPSSKPRP,-0.244
15,RRIRRRPPRLPRPRPRPCDVPRP,-0.0838
16,RRIRMRPPRLPRPRPRPLVNPRP,0.0639
17,RRIRDRPPRLPRPRPRPGRSPRP,0.0526
18,RRIRIRPPRLPRPRPRPFVNPRP,-0.488
19,RRIRDRPPRLPRPRPRPLVKPRP,0.0947
20,RRIRPRPPRLPRPRPRPMDHPRP,0.0131
21,RRIRSRPPRLPRPRPRPCPFPRP,-0.138
22,RRIRCRPPRLPRPRPRPAPDPRP,0.576
23,RRIRTRPPRLPRPRPRPIVTPRP,1.13
24,RRIRQRPPRLPRPRPRPLNDPRP,-0.277
25,RRIRGRPPRLPRPRPRPWQPPRP,-0.12

row,Sequence,shrunken log2 fold change
1,RRIRIRPPRLPRPRPRPPAIPRP,0.00229
2,RRIRVRPPRLPRPRPRPDEWPRP,0.0467
3,RRIRVRPPRLPRPRPRPDTLPRP,-0.712
4,RRIRNRPPRLPRPRPRPGSFPRP,-0.0339
5,RRIRIRPPRLPRPRPRPNSEPRP,-0.686
6,RRIRMRPPRLPRPRPRPYKVPRP,-0.0176
7,RRIRERPPRLPRPRPRPFQYPRP,-0.64
8,RRIRERPPRLPRPRPRPMPQPRP,-0.201
9,RRIRSRPPRLPRPRPRPCYHPRP,-0.297
10,RRIRMRPPRLPRPRPRPRVCPRP,0.545
11,RRIRFRPPRLPRPRPRPSCMPRP,-0.831
12,RRIRIRPPRLPRPRPRPPEAPRP,0.276
13,RRIRVRPPRLPRPRPRPVAMPRP,0.0876
14,RRIRYRPPRLPRPRPRPKSVPRP,-0.187
15,RRIRQRPPRLPRPRPRPADIPRP,-0.01
16,RRIRMRPPRLPRPRPRPHAAPRP,1.63
17,RRIRKRPPRLPRPRPRPMTVPRP,0.0686
18,RRIRDRPPRLPRPRPRPSGDPRP,0.163
19,RRIRVRPPRLPRPRPRPYTFPRP,-0.314
20,RRIRSRPPRLPRPRPRPARSPRP,0.158
21,RRIRRRPPRLPRPRPRPPGCPRP,0.417
22,RRIRCRPPRLPRPRPRPKTCPRP,-0.211
23,RRIRGRPPRLPRPRPRPHISPRP,-0.0962
24,RRIRIRPPRLPRPRPRPQYMPRP,-1.02
25,RRIRPRPPRLPRPRPRPDCAPRP,0.354

row,Sequence,shrunken log2 fold change
1,RRIRLRPPRLPRPRPRPWTHPRP,-0.207
2,RRIRKRPPRLPRPRPRPQTNPRP,0.271
3,RRIRFRPPRLPRPRPRPQNVPRP,-0.16
4,RRIRFRPPRLPRPRPRPYKFPRP,-0.228
5,RRIRMRPPRLPRPRPRPFWSPRP,-0.123
6,RRIRIRPPRLPRPRPRPDQWPRP,0.0363
7,RRIRNRPPRLPRPRPRPVIEPRP,-0.0754
8,RRIRNRPPRLPRPRPRPIADPRP,0.0461
9,RRIRWRPPRLPRPRPRPVMPPRP,0.15
10,RRIRSRPPRLPRPRPRPGSRPRP,0.297
11,RRIRCRPPRLPRPRPRPSDSPRP,-0.34
12,RRIRVRPPRLPRPRPRPFFCPRP,-0.00678
13,RRIRARPPRLPRPRPRPAMIPRP,0.0684
14,RRIRDRPPRLPRPRPRPPFKPRP,0.18
15,RRIRKRPPRLPRPRPRPHNVPRP,-0.097
16,RRIRFRPPRLPRPRPRPFIYPRP,-0.714
17,RRIRPRPPRLPRPRPRPDIWPRP,0.144
18,RRIRRRPPRLPRPRPRPPGRPRP,1.52
19,RRIRIRPPRLPRPRPRPPWMPRP,-0.0904
20,RRIRWRPPRLPRPRPRPTWRPRP,0.609
21,RRIRIRPPRLPRPRPRPAGHPRP,-0.159
22,RRIRKRPPRLPRPRPRPFLCPRP,0.158
23,RRIRQRPPRLPRPRPRPMRHPRP,2.84
24,RRIRARPPRLPRPRPRPRPAPRP,0.76
25,RRIRARPPRLPRPRPRPHFGPRP,0.0349

row,Sequence,shrunken log2 fold change
1,RRIRPRPPRLPRPRPRPANAPRP,0.0662
2,RRIRSRPPRLPRPRPRPQMAPRP,0.0615
3,RRIRPRPPRLPRPRPRPNLIPRP,-0.203
4,RRIRKRPPRLPRPRPRPWSFPRP,0.121
5,RRIRWRPPRLPRPRPRPLWKPRP,-0.128
6,RRIRVRPPRLPRPRPRPTMSPRP,-0.194
7,RRIRMRPPRLPRPRPRPDTKPRP,0.0742
8,RRIRARPPRLPRPRPRPKNQPRP,0.249
9,RRIRPRPPRLPRPRPRPRYEPRP,-0.0954
10,RRIRRRPPRLPRPRPRPFVQPRP,-0.0288
11,RRIRCRPPRLPRPRPRPEWIPRP,-0.151
12,RRIRVRPPRLPRPRPRPPCFPRP,0.17
13,RRIRCRPPRLPRPRPRPLLRPRP,0.88
14,RRIRDRPPRLPRPRPRPLTKPRP,0.0084
15,RRIRFRPPRLPRPRPRPTCFPRP,-0.157
16,RRIRSRPPRLPRPRPRPKTHPRP,-0.0477
17,RRIRYRPPRLPRPRPRPKHEPRP,-0.0393
18,RRIRVRPPRLPRPRPRPSIAPRP,-0.0218
19,RRIRFRPPRLPRPRPRPTHTPRP,0.186
20,RRIRPRPPRLPRPRPRPIWAPRP,0.384
21,RRIRNRPPRLPRPRPRPTMPPRP,0.0915
22,RRIRGRPPRLPRPRPRPCHRPRP,0.207
23,RRIRMRPPRLPRPRPRPAKIPRP,0.211
24,RRIRYRPPRLPRPRPRPLKYPRP,-0.352
25,RRIRCRPPRLPRPRPRPLIHPRP,-0.842

row,Sequence,shrunken log2 fold change
1,RRIRDRPPRLPRPRPRPWFKPRP,-0.203
2,RRIRYRPPRLPRPRPRPNKEPRP,-0.0622
3,RRIRERPPRLPRPRPRPEPGPRP,0.667
4,RRIRHRPPRLPRPRPRPNVFPRP,-0.116
5,RRIRPRPPRLPRPRPRPDVPPRP,-0.0575
6,RRIRWRPPRLPRPRPRPQVLPRP,-0.0271
7,RRIRNRPPRLPRPRPRPGEMPRP,0.336
8,RRIRKRPPRLPRPRPRPKSVPRP,0.451
9,RRIRYRPPRLPRPRPRPNPSPRP,-0.0272
10,RRIRLRPPRLPRPRPRPGQQPRP,-0.0555
11,RRIRARPPRLPRPRPRPTPKPRP,0.956
12,RRIRERPPRLPRPRPRPHECPRP,-0.0253
13,RRIRIRPPRLPRPRPRPHWTPRP,0.0591
14,RRIRDRPPRLPRPRPRPHQCPRP,-0.0903
15,RRIRTRPPRLPRPRPRPAIKPRP,0.957
16,RRIRFRPPRLPRPRPRPEQEPRP,-0.159
17,RRIRLRPPRLPRPRPRPVPHPRP,-0.128
18,RRIRWRPPRLPRPRPRPPDKPRP,0.423
19,RRIRERPPRLPRPRPRPKGPPRP,0.0237
20,RRIRMRPPRLPRPRPRPNPKPRP,0.023
21,RRIRYRPPRLPRPRPRPHYRPRP,-0.433
22,RRIRFRPPRLPRPRPRPEIQPRP,0.0158
23,RRIRPRPPRLPRPRPRPNHRPRP,-0.11
24,RRIRLRPPRLPRPRPRPDVAPRP,0.093
25,RRIRPRPPRLPRPRPRPYCNPRP,-0.481

row,Sequence,shrunken log2 fold change
1,RRIRCRPPRLPRPRPRPSSTPRP,-0.855
2,RRIRWRPPRLPRPRPRPAIQPRP,0.0853
3,RRIRWRPPRLPRPRPRPMVSPRP,-0.0339
4,RRIRNRPPRLPRPRPRPMDTPRP,-0.141
5,RRIRKRPPRLPRPRPRPQIWPRP,0.138
6,RRIRHRPPRLPRPRPRPWNCPRP,-0.366
7,RRIRPRPPRLPRPRPRPCATPRP,0.132
8,RRIRRRPPRLPRPRPRPGNCPRP,0.177
9,RRIRARPPRLPRPRPRPWGPPRP,-0.119
10,RRIRKRPPRLPRPRPRPNKDPRP,0.0544
11,RRIRERPPRLPRPRPRPKSVPRP,-0.00947
12,RRIRCRPPRLPRPRPRPPNLPRP,-0.0983
13,RRIRVRPPRLPRPRPRPAMLPRP,0.0111
14,RRIRARPPRLPRPRPRPSVVPRP,-0.0244
15,RRIRYRPPRLPRPRPRPATYPRP,-0.113
16,RRIRMRPPRLPRPRPRPPGPPRP,1.41
17,RRIRMRPPRLPRPRPRPCGMPRP,0.134
18,RRIRPRPPRLPRPRPRPPCQPRP,0.268
19,RRIRARPPRLPRPRPRPMDDPRP,0.197
20,RRIRCRPPRLPRPRPRPPNGPRP,-0.0741
21,RRIRVRPPRLPRPRPRPMDDPRP,-0.312
22,RRIRCRPPRLPRPRPRPNLGPRP,-0.283
23,RRIRVRPPRLPRPRPRPAWTPRP,-0.0585
24,RRIRQRPPRLPRPRPRPLEWPRP,0.0921
25,RRIRMRPPRLPRPRPRPAYSPRP,-0.166
